These results are taken from patent US20210079558A1.

In this assay the target is Protein A expressed on Staphylococcus aureus (Staphylococcus aureus) (UniProt P38507). In words: yeast display; one round of selection with cell-surface biotinylated S. aureus and magnetic streptavidin-coated beads; GFP+ yeast counted by flow cytometry. In general terms: Flow cytometry measures light scatter and fluorescence of single cells or particles in a stream.

“Fc region of the human IgG1 protein N297Q (aglycosylated) mutant, displayed on the surface of yeast” returned a fold enrichment of GFP+ yeast of 30 fold.
